Assay results reported in patent US20240343770A1 (SUNSHINE LAKE PHARMA, published 2024).
Positions count from the first letter of the chain named. Numbers in names are those of the source. One block for each molecule: values may come before it.

Experiments:
[1] = molecular target: human GFRAL (human) (UniProt Q6UXV0); assay: cell-based or functional assay
[2] = molecular target: the molecule itself; assay: SEC of the purified Fc (self-association, aggregate state)
[3] = molecular target: the molecule itself; assay: SEC of the purified Fc (self-association)

human GFRAL (human), sequence (Q6UXV0 19-394): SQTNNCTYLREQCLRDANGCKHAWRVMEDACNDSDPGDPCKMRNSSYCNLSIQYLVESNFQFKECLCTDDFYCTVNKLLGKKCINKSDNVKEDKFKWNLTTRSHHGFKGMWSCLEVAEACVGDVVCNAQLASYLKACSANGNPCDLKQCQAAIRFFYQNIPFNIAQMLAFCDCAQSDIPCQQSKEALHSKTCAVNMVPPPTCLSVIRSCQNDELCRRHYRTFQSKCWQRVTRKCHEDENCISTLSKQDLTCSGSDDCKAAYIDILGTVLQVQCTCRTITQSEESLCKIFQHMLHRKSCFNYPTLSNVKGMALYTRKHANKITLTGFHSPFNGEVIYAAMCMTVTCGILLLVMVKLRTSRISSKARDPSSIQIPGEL

Relative activity ratio (native GDF15 EC50 : construct EC50), phospho-ERK1/2 HTRF in HEK293T cells expressing human GFRAL and RET [1]: 1
Molecule: native GDF15 (from UniProt Q99988 197-308) (ligand)

B1: IgG4 Fc (AA, K439E) (other)
chain: EAAGGPSVFLFPPKPKDTLMISRTPEVTCVVVDVSQEDPEVQFNWYVDGVEVHNAKTKPREEQFNSTYRVVSVLTVLHQDWLNGKEYKCKVSNKGLPSSIEKTISKAKGQPREPQVYTLPPSQEEMTKNQVSLTCLVKGFYPSDIAVEWESNGQPENNYKTTPPVLDSDGSFFLYSRLTVDKSRWQEGNVFSCSVMHEALHNHYTQESLSLSLG
notes: One Fc polypeptide
binding result [2]: binds

B2: IgG4 Fc (AA, F405Q/Y407E) (other)
chain: B1 chain with F173Q, Y175E, E207K
notes: Control Fc; found as a monomer by SEC; also called monomeric Fc molecule
binding result [3]: no binding

B3: IgG4 Fc (AA, K439D) (other)
chain: B1 chain with E207D
notes: One Fc polypeptide
binding result [2]: binds
